Experimental data taken from the supplement of paper PMC10567573.

B1: ANKRD9 (parent)
chain: VGAAGSARQELLGDRPRWQRLLGE
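Further: lentivirally expressed fusions sorted by FACS into six bins by GFP to DsRed ratio, PSI derived from sequencing read proportions per bin multiplied by bin number.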

Variants of: B1
Assay: protein stability index of a GFP-peptide fusion (GPS, HEK-293T) (PSI 1-6); higher = more stable
Conditions: c terminus: a fixed tail appended
For VGAAGSARQELLGDRPNWQRLLGE [R17N], the protein stability index was 3.29.
VGAAGSARQELLGDRPVWQRLLGE [R17V] gave a protein stability index of 3.
In the case of VGAAGSARQELLGDRPLWQRLLGE [R17L], the protein stability index is reported as 2.73.
VGAAGSARQELLGDRPKWQRLLGE [R17K] showed a protein stability index of 3.53.
For VGAAGSARQELLGDRPEWQRLLGE [R17E], the protein stability index was 3.81.
With VGAAGSARQELLGDRPDWQRLLGE [R17D] the protein stability index was 3.41.
In the case of VGAAGSARQELLGDRPSWQRLLGE [R17S], the protein stability index is reported as 4.09.
Variant VGAAGSARQELLGDRPTWQRLLGE [R17T] has a protein stability index of 3.43.
Variant VGAAGSARQELLGDRPHWQRLLGE [R17H] has a protein stability index of 4.01.
With VGAAGSARQELLGDRPFWQRLLGE [R17F] the protein stability index was 1.94.
In the case of VGAAGSARQELLGDRPPWQRLLGE [R17P], the protein stability index is reported as 4.29.
VGAAGSARQELLGDRPMWQRLLGE [R17M] gave a protein stability index of 2.72.
Work on VGAAGSARQELLGDRPGWQRLLGE [R17G] yielded a protein stability index of 3.5.
In the case of VGAAGSARQELLGDRPAWQRLLGE [R17A], the protein stability index is reported as 3.33.
In the case of VGAAGSARQELLGDRPQWQRLLGE [R17Q], the protein stability index is reported as 3.47.
Variant VGAAGSARQELLGDRPWWQRLLGE [R17W] has a protein stability index of 2.61.
For VGAAGSARQELLGDRPYWQRLLGE [R17Y], the protein stability index was 2.37.
With VGAAGSARQELLGDRPIWQRLLGE [R17I] the protein stability index was 2.83.
Work on VGAAGSARQELLGDRPRWQELLGE [R20E] yielded a protein stability index of 2.18.
Work on VGAAGSARQELLGDRPRWQWLLGE [R20W] yielded a protein stability index of 3.32.
Variant VGAAGSARQELLGDRPRWQFLLGE [R20F] has a protein stability index of 3.28.
In the case of VGAAGSARQELLGDRPRWQCLLGE [R20C], the protein stability index is reported as 2.71.
Work on VGAAGSARQELLGDRPRWQMLLGE [R20M] yielded a protein stability index of 2.81.
In the case of VGAAGSARQELLGDRPRWQGLLGE [R20G], the protein stability index is reported as 2.74.
In the case of VGAAGSARQELLGDRPRWQALLGE [R20A], the protein stability index is reported as 2.58.
VGAAGSARQELLGDRPRWQDLLGE [R20D] gave a protein stability index of 1.25.
VGAAGSARQELLGDRPRWQNLLGE [R20N] gave a protein stability index of 3.46.
With VGAAGSARQELLGDRPRWQSLLGE [R20S] the protein stability index was 2.87.
VGAAGSARQELLGDRPRWQQLLGE [R20Q] gave a protein stability index of 2.68.
For VGAAGSARQELLGDRPRWQPLLGE [R20P], the protein stability index was 2.19.
With VGAAGSARQELLGDRPRWQTLLGE [R20T] the protein stability index was 2.67.
VGAAGSARQELLGDRPRWQKLLGE [R20K] showed a protein stability index of 2.71.
For VGAAGSARQELLGDRPRWQLLLGE [R20L], the protein stability index was 2.72.
Work on VGAAGSARQELLGDRPRWQVLLGE [R20V] yielded a protein stability index of 2.81.
With VGAAGSARQELLGDRPRWQHLLGE [R20H] the protein stability index was 2.52.
With VGAAGSARQELLGDRPRWQYLLGE [R20Y] the protein stability index was 2.62.
Work on VGAAGSARQELLGDRPRWQILLGE [R20I] yielded a protein stability index of 2.07.
Work on VGAAGSARQELLGDRPRGQRLLGE [W18G] yielded a protein stability index of 5.32.
VGAAGSARQELLGDRPREQRLLGE [W18E] gave a protein stability index of 4.45.
Variant VGAAGSARQELLGDRPRQQRLLGE [W18Q] has a protein stability index of 4.1.
With VGAAGSARQELLGDRPRDQRLLGE [W18D] the protein stability index was 4.63.
Variant VGAAGSARQELLGDRPRMQRLLGE [W18M] has a protein stability index of 3.57.
VGAAGSARQELLGDRPRTQRLLGE [W18T] showed a protein stability index of 4.63.
VGAAGSARQELLGDRPRPQRLLGE [W18P] gave a protein stability index of 4.98.
Work on VGAAGSARQELLGDRPRVQRLLGE [W18V] yielded a protein stability index of 4.4.
In the case of VGAAGSARQELLGDRPRAQRLLGE [W18A], the protein stability index is reported as 4.38.
For VGAAGSARQELLGDRPRFQRLLGE [W18F], the protein stability index was 3.54.
For VGAAGSARQELLGDRPRYQRLLGE [W18Y], the protein stability index was 3.78.
For VGAAGSARQELLGDRPRRQRLLGE [W18R], the protein stability index was 4.93.
With VGAAGSARQELLGDRPRLQRLLGE [W18L] the protein stability index was 4.36.
For VGAAGSARQELLGDRPRHQRLLGE [W18H], the protein stability index was 4.14.
With VGAAGSARQELLGDRPRSQRLLGE [W18S] the protein stability index was 4.2.
In the case of VGAAGSARQELLGDRPRKQRLLGE [W18K], the protein stability index is reported as 4.64.
With VGAAGSARQELLGDRPRNQRLLGE [W18N] the protein stability index was 4.11.
Variant VGAAGSARQELLGDRNRWQRLLGE [P16N] has a protein stability index of 3.88.
In the case of VGAAGSARQELLGDRDRWQRLLGE [P16D], the protein stability index is reported as 3.1.
Work on VGAAGSARQELLGDRMRWQRLLGE [P16M] yielded a protein stability index of 2.94.
For VGAAGSARQELLGDRGRWQRLLGE [P16G], the protein stability index was 2.98.
In the case of VGAAGSARQELLGDRKRWQRLLGE [P16K], the protein stability index is reported as 3.68.
VGAAGSARQELLGDRQRWQRLLGE [P16Q] showed a protein stability index of 2.65.
Work on VGAAGSARQELLGDRHRWQRLLGE [P16H] yielded a protein stability index of 2.83.
With VGAAGSARQELLGDRRRWQRLLGE [P16R] the protein stability index was 3.31.
For VGAAGSARQELLGDRERWQRLLGE [P16E], the protein stability index was 4.72.
VGAAGSARQELLGDRVRWQRLLGE [P16V] gave a protein stability index of 3.35.
For VGAAGSARQELLGDRWRWQRLLGE [P16W], the protein stability index was 1.84.
For VGAAGSARQELLGDRLRWQRLLGE [P16L], the protein stability index was 3.12.
For VGAAGSARQELLGDRYRWQRLLGE [P16Y], the protein stability index was 3.28.
Variant VGAAGSARQELLGDRIRWQRLLGE [P16I] has a protein stability index of 2.92.
In the case of VGAAGSARQELLGDRSRWQRLLGE [P16S], the protein stability index is reported as 3.16.
Work on VGAAGSARQELLGDRPRWHRLLGE [Q19H] yielded a protein stability index of 3.14.
Work on VGAAGSARQELLGDRPRWLRLLGE [Q19L] yielded a protein stability index of 2.56.
Work on VGAAGSARQELLGDRPRWARLLGE [Q19A] yielded a protein stability index of 2.15.
Variant VGAAGSARQELLGDRPRWTRLLGE [Q19T] has a protein stability index of 2.49.
VGAAGSARQELLGDRPRWDRLLGE [Q19D] showed a protein stability index of 2.83.
In the case of VGAAGSARQELLGDRPRWWRLLGE [Q19W], the protein stability index is reported as 2.81.
VGAAGSARQELLGDRPRWPRLLGE [Q19P] showed a protein stability index of 3.79.
VGAAGSARQELLGDRPRWMRLLGE [Q19M] gave a protein stability index of 3.26.
For VGAAGSARQELLGDRPRWVRLLGE [Q19V], the protein stability index was 2.9.
In the case of VGAAGSARQELLGDRPRWCRLLGE [Q19C], the protein stability index is reported as 3.27.
In the case of VGAAGSARQELLGDRPRWSRLLGE [Q19S], the protein stability index is reported as 2.91.
Variant VGAAGSARQELLGDRPRWGRLLGE [Q19G] has a protein stability index of 2.94.
With VGAAGSARQELLGDRPRWFRLLGE [Q19F] the protein stability index was 2.51.
With VGAAGSARQELLGDRPRWERLLGE [Q19E] the protein stability index was 2.58.
VGAAGSARQELLGDRPRWYRLLGE [Q19Y] gave a protein stability index of 2.59.
For VGAAGSARQELLGDRPRWNRLLGE [Q19N], the protein stability index was 3.94.
Work on VGAAGSARQELLGDRPRWIRLLGE [Q19I] yielded a protein stability index of 2.98.
In the case of VGAAGSARQELLGDRPRWQRALGE [L21A], the protein stability index is reported as 3.28.
For VGAAGSARQELLGDRPRWQRHLGE [L21H], the protein stability index was 2.86.
Variant VGAAGSARQELLGDRPRWQRFLGE [L21F] has a protein stability index of 2.68.
Work on VGAAGSARQELLGDRPRWQRCLGE [L21C] yielded a protein stability index of 3.75.
Variant VGAAGSARQELLGDRPRWQRILGE [L21I] has a protein stability index of 2.93.
VGAAGSARQELLGDRPRWQRGLGE [L21G] gave a protein stability index of 2.93.
Work on VGAAGSARQELLGDRPRWQRDLGE [L21D] yielded a protein stability index of 4.72.
VGAAGSARQELLGDRPRWQRELGE [L21E] gave a protein stability index of 4.67.
